B1: DGL286 (bispecific antibody)
chain: EVQLLESGGGLVQPGGSLRLSCAASGFTFSNAWMNWVRQAPGKGLEWVSSISSSSSYIYYADSVKGRFTISRDNSKNTLYLQMNSLRAEDTAVYYCARAVAAGGMFWGLDQWGQGTLVTVTSSGGGGSGGGGSGGGGSQSVLTQPPSASGTPGQRVTISCSGSRSNIGSNSVHWYQQLPGTAPKLLIYGNSNRPSGVPDRFSGSKSGTSASLAISGLRSEDEADYYCQSYDSSLNDHVVFGGGTKLTVLDKGPSVFPLAPEPKSSEVQLLESGGGLVQPGGSLRLSCAASGFTFSIYAMSWVRQAPGKGLEWVSAISGSGGSTYYADSVKGRFTISRDNSKNTLYLQMNSLRAEDTAVYYCARDFDYWGQGTLVTVTSSGGGGSGGGGSGGGGSQSVLTQPPSASGTPGQRVTISCSGSSSNIGSNYVYWYQQLPGTAPKLLIYGNINRPSGVPDRFSGSKSGTSASLAISGLRSEDEADYYCAAWDDSLNGRVFGGGTKLTVLDKTHTCPPCPAPEAAGAPSVFLFPPKPKDTLMISRTPEVTCVVVDVSHEDPEVKFNWYVDGVEVHNAKTKPREEQYNSTYRVVSVLTVLHQDWLNGKEYKCKVSNKALPAPIEKTISKAKGQPREPQVYTLPPSRDELTKNQVSLTCLVKGFYPSDIAVEWESNGQPENNYKTTPPVLDSDGSFFLYSKLTVDKSRWQQGNVFSCSVMHEALHNHYTQKSLSLSPG
B2: DGL288 (bispecific antibody)
chain: EVQLLESGGGLVQPGGSLRLSCAASGFTFSDYYMTWIRQAPGKGLEWVSSISGGSTYYADSRKGRFTISRDNSENTLYLQMNSLRAEDTAVYYCARDFGVAGWFGQYGMDVWGQGTLVTVSSGGGGSGGGGSGGGGSQSVLTQPPSASGTPGQRVTISCTGSSSNIGAGYDVHWYQQLPGTAPKLLIYRSNQRPSGVPDRFSGSKSGTSASLAISGLRSEDEADYYCSSYAGNYNLVFGGGTKLTVLDKGPSVFPLAPEPKSSEVQLLESGGGLVQPGGSLRLSCAASGFTFSSYAMSWVRQAPGKGLEWVANINQDGSEKNYVDSMRGRFTISRDNSKNTLYLQMNSLRAEDTAVYYCAREFDYWGQGTLVTVTSSGGGGSGGGGSGGGGSQSVLAQPPSASGTPGQRVTISCSGSSSNIGSNYVYWYQQLPGTAPKLLIYGNNKRPSGVPDRFSGSKSGTSASLAISGLRSEDEADYYCAAWDDSLNGRVFGGGTKLTVLDKTHTCPPCPAPEAAGAPSVFLFPPKPKDTLMISRTPEVTCVVVDVSHEDPEVKFNWYVDGVEVHNAKTKPREEQYNSTYRVVSVLTVLHQDWLNGKEYKCKVSNKALPAPIEKTISKAKGQPREPQVYTLPPSRDELTKNQVSLTCLVKGFYPSDIAVEWESNGQPENNYKTTPPVLDSDGSFFLYSKLTVDKSRWQQGNVFSCSVMHEALHNHYTQKSLSLSPG
B3: DGL287 (bispecific antibody)
chain: EVQLLESGGGLVQPGGSLRLSCAASGFTFSSYAMSWVRQAPGKGLEWVANINQDGSEKNYVDSMRGRFTISRDNSKNTLYLQMNSLRAEDTAVYYCAREFDYWGQGTLVTVTSSGGGGSGGGGSGGGGSQSVLAQPPSASGTPGQRVTISCSGSSSNIGSNYVYWYQQLPGTAPKLLIYGNNKRPSGVPDRFSGSKSGTSASLAISGLRSEDEADYYCAAWDDSLNGRVFGGGTKLTVLDKGPSVFPLAPEPKSSEVQLLESGGGLVQPGGSLRLSCAASGFTFSDYYMTWIRQAPGKGLEWVSSISGGSTYYADSRKGRFTISRDNSENTLYLQMNSLRAEDTAVYYCARDFGVAGWFGQYGMDVWGQGTLVTVSSGGGGSGGGGSGGGGSQSVLTQPPSASGTPGQRVTISCTGSSSNIGAGYDVHWYQQLPGTAPKLLIYRSNQRPSGVPDRFSGSKSGTSASLAISGLRSEDEADYYCSSYAGNYNLVFGGGTKLTVLDKTHTCPPCPAPEAAGAPSVFLFPPKPKDTLMISRTPEVTCVVVDVSHEDPEVKFNWYVDGVEVHNAKTKPREEQYNSTYRVVSVLTVLHQDWLNGKEYKCKVSNKALPAPIEKTISKAKGQPREPQVYTLPPSRDELTKNQVSLTCLVKGFYPSDIAVEWESNGQPENNYKTTPPVLDSDGSFFLYSKLTVDKSRWQQGNVFSCSVMHEALHNHYTQKSLSLSPG
B4: DGL283 (bispecific antibody, human IgG1, lambda)
heavy 1: EVQLLESGGGLVQPGGSLRLSCAASGFTFSSYAMSWVRQAPGKGLEWVANINQDGSEKNYVDSMRGRFTISRDNSKNTLYLQMNSLRAEDTAVYYCAREFDYWGQGTLVTVTSSASVAAPSVFIFPPSDEQLKSGTASVVCLLNNFYPREAKVQWKVDNALQSGNSQESVTEQDSKDSTYSLSSTLTLSKADYEKHKVYACEVTHQGLSSPVTKSFNRGECDKTHTCPPCPAPEAAGAPSVFLFPPKPKDTLMISRTPEVTCVVVDVSHEDPEVKFNWYVDGVEVHNAKTKPREEQYNSTYRVVSVLTVLHQDWLNGKEYKCKVSNKALPAPIEKTISKAKGQPREPQVCTLPPSRDELTKNQVSLSCAVKGFYPSDIAVEWESNGQPENNYKTTPPVLDSDGSFFLVSKLTVDKSRWQQGNVFSCSVMHEALHNHYTQKSLSLSPGWSHPQFEK
light 1: QSVLAQPPSASGTPGQRVTISCSGSSSNIGSNYVYWYQQLPGTAPKLLIYGNNKRPSGVPDRFSGSKSGTSASLAISGLRSEDEADYYCAAWDDSLNGRVFGGGTKLTVLSSASTKGPSVFPLAPSSKSTSGGTAALGCLVKDYFPEPVTVSWNSGALTSGVHTFPAVLQSSGLYSLSSVVTVPSSSLGTQTYICNVNHKPSNTKVDKKVEPKSC
heavy 2: not shown
light 2: not shown
B5: DGL285 (bispecific antibody)
chain: EVQLLESGGGLVQPGGSLRLSCAASGFTFSIYAMSWVRQAPGKGLEWVSAISGSGGSTYYADSVKGRFTISRDNSKNTLYLQMNSLRAEDTAVYYCARDFDYWGQGTLVTVTSSGGGGSGGGGSGGGGSQSVLTQPPSASGTPGQRVTISCSGSSSNIGSNYVYWYQQLPGTAPKLLIYGNINRPSGVPDRFSGSKSGTSASLAISGLRSEDEADYYCAAWDDSLNGRVFGGGTKLTVLDKGPSVFPLAPEPKSSEVQLLESGGGLVQPGGSLRLSCAASGFTFSNAWMNWVRQAPGKGLEWVSSISSSSSYIYYADSVKGRFTISRDNSKNTLYLQMNSLRAEDTAVYYCARAVAAGGMFWGLDQWGQGTLVTVTSSGGGGSGGGGSGGGGSQSVLTQPPSASGTPGQRVTISCSGSRSNIGSNSVHWYQQLPGTAPKLLIYGNSNRPSGVPDRFSGSKSGTSASLAISGLRSEDEADYYCQSYDSSLNDHVVFGGGTKLTVLDKTHTCPPCPAPEAAGAPSVFLFPPKPKDTLMISRTPEVTCVVVDVSHEDPEVKFNWYVDGVEVHNAKTKPREEQYNSTYRVVSVLTVLHQDWLNGKEYKCKVSNKALPAPIEKTISKAKGQPREPQVYTLPPSRDELTKNQVSLTCLVKGFYPSDIAVEWESNGQPENNYKTTPPVLDSDGSFFLYSKLTVDKSRWQQGNVFSCSVMHEALHNHYTQKSLSLSPG

Biological target: ALK-1/BMPR-2 receptor pair of the PathHunter U2Os dimerization cells (DiscoverX 93-0962C3) (UniProt P37023 22-503; Q13873 27-1038)
Experiment: cell-based or functional assay

Chain of ALK-1/BMPR-2 receptor pair of the PathHunter U2Os dimerization cells (DiscoverX 93-0962C3) (P37023 22-503, chain 1 of 2): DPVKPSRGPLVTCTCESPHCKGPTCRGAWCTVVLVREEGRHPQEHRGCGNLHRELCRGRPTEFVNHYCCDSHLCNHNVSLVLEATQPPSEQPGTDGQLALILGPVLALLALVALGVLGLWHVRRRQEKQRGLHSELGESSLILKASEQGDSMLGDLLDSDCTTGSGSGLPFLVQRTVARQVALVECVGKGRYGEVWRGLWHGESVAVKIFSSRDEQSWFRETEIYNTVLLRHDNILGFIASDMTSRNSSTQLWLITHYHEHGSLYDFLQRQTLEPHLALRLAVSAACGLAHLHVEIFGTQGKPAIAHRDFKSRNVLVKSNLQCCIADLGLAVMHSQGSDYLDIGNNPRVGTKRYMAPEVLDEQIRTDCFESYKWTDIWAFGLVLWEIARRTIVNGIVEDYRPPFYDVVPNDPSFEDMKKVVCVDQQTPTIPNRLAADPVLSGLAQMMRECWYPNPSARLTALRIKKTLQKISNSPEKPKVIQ
Chain of ALK-1/BMPR-2 receptor pair of the PathHunter U2Os dimerization cells (DiscoverX 93-0962C3) (Q13873 27-1038, chain 2 of 2): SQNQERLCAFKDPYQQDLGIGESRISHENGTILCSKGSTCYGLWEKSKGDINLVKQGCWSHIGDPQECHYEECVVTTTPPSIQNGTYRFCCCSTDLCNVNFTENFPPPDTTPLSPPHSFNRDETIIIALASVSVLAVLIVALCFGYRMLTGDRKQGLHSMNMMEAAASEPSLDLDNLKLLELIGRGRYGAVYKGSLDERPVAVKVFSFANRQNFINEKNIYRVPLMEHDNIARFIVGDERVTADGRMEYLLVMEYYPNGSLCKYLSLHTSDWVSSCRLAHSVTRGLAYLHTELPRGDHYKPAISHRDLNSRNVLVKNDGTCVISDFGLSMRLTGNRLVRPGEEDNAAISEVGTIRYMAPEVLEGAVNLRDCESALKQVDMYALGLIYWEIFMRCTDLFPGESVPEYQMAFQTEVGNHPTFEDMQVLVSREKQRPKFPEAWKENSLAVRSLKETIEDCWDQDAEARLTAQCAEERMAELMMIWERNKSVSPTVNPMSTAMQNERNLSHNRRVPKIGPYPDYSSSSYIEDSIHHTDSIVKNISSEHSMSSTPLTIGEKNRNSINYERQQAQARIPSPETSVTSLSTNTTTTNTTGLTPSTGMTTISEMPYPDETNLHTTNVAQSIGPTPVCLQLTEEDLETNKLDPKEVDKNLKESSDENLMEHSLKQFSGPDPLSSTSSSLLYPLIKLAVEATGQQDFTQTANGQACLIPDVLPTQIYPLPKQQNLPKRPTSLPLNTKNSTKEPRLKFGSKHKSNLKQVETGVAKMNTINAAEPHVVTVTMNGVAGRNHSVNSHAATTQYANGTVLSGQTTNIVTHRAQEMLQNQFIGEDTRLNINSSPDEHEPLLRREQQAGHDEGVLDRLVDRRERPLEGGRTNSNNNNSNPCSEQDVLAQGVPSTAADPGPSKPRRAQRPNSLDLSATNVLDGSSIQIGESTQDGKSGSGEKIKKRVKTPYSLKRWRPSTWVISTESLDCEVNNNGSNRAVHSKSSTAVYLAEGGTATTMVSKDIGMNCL

What does the source list for B1?
% Emax BMP9: 68%; EC50: 200 pM; Emax (RLU): 1.8e+06 RLU

With B2 as the binder, how does the “% Emax BMP9” value read?
The value was 76%.

What about the “EC50” value of the same binder?
Its value is 70 pM.

And the “Emax (RLU)” value?
Its value is 2e+06 RLU.

B3 was tested. Which “% Emax BMP9” value did it give?
Its value is 48%.

And the “EC50” value?
Its value is 40 pM.

And the “Emax (RLU)” value?
The value was 1.26e+06 RLU.

Which “% Emax BMP9” value does the source give for B4 here?
Its value is 33%.

What about the “EC50” value of the same binder?
The value was 28000 pM.

What about the “Emax (RLU)” value of the same binder?
Its value is 879000 RLU.

For B5, which “% Emax BMP9” value is on record?
The value was 56%.

And the “EC50” value?
The value was 80 pM.

And the “Emax (RLU)” value?
The value was 1.47e+06 RLU.

Reference: patent publication US20250002588A1 (DIAGONAL THERAPEUTICS, published 2025)
